Measurements published in patent publication US20200010554A1 (TUSK THERAPEUTICS, published 2020).
Like-named read-outs stand apart in the source and are kept apart here. Blank lines part the entries; values can stand above or below the binder they belong to.

Assays:
[1] = target: T1, recombinant human CD25 his tagged (human, UniProt P01589 22-213, limits assumed); assay: biolayer interferometry, Octet Red 96: antibody on AHC biosensor, rhCD25 his tagged 50 nM to 0.54 nM, global 1:1 fit [F]
T1 construct: also called rhCD25 his tagged; rhCD25; not shown: his tag
T1 sequence: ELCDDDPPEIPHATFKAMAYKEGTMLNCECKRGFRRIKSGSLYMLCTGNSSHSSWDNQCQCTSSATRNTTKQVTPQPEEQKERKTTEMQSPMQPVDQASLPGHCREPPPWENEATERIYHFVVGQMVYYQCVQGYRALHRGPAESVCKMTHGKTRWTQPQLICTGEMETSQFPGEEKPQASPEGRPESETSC

[2] = target: T2, mouse CD25 expressed on cells (CHO cells expressing mouse CD25; mouse T cells) (mouse, UniProt P01590 22-268); assay: flow cytometry on CHO cells expressing mouse CD25, MFI AF647
T2 construct: whole, on cells; also called CHO-mCD25; cellular expressed mCD25
T2 sequence (looked up): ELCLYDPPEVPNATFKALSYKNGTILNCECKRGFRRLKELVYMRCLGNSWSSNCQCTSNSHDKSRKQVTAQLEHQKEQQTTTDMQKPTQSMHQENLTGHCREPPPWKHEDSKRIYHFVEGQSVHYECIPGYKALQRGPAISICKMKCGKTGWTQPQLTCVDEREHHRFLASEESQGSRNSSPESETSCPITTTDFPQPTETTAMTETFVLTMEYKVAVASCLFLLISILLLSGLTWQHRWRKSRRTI

[3] = target: T3, recombinant mouse CD25 his tagged (mouse, UniProt P01590 22-236, limits assumed); assay: SPR Biacore 2000, antibody captured by anti-mouse antibody on CM-5 chip, recombinant mouse CD25 his tagged as analyte, bivalent analyte model
T3 construct: also called rmCD25 his tagged; mCD25; not shown: his tag
T3 sequence (looked up): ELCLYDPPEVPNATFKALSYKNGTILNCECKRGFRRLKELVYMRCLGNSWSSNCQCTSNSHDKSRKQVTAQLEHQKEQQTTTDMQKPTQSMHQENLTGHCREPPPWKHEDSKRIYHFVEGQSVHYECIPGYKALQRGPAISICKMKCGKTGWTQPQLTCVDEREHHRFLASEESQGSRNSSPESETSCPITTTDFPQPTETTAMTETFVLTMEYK

[4] = target: T4, recombinant mouse CD25 (mouse, UniProt P01590 22-236, biotinylated in FIG. 1A (site not stated)); assay: BLI Octet RED384, IgG on AHQ sensors, 100 nM antigen, 1:1 model
T4 construct: also called biotinylated mouse CD25
T4 sequence (looked up): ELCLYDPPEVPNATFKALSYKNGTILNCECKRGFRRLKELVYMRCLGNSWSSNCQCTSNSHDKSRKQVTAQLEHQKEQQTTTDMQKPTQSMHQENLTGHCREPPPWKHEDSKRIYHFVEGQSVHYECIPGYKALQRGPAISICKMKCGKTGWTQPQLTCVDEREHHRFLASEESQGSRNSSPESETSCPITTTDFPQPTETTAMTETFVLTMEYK

[5] = target: T5, human CD25 expressed on cells (Karpas 299, SU-DHL-1, SR-786, in vitro differentiated Treg cells, PBMC) (human, UniProt P01589 22-272); assay: flow cytometry titration on Karpas 299 cells, AF647 secondary antibody
T5 construct: also called CD25 expressing cells
T5 sequence: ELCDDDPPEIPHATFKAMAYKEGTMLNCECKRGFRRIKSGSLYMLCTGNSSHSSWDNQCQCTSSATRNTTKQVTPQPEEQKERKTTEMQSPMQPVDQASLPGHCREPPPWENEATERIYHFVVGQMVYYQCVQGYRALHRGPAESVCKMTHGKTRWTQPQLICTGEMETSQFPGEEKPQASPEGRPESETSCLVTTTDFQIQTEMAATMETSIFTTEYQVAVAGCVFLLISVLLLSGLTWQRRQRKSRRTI

[6] = target: T5, human CD25 expressed on cells (Karpas …); assay: as above; remark: listed apart in the source
[7] = target: T5, human CD25 expressed on cells (Karpas …); assay: as above; remark: listed apart in the source
[8] = target: T5, human CD25 expressed on cells (Karpas …); assay: as above; remark: listed apart in the source
[9] = target: T5, human CD25 expressed on cells (Karpas …); assay: as above; remark: listed apart in the source
[10] = target: T5, human CD25 expressed on cells (Karpas …); assay: as above; remark: listed apart in the source
[11] = target: T5, human CD25 expressed on cells (Karpas …); assay: flow cytometry on Karpas 299 cells, MFI AF647
[12] = target: T5, human CD25 expressed on cells (Karpas …); assay: flow cytometry on SU-DHL-1 cells, Geo Mean Intensity
[13] = target: T1, recombinant human CD25 his tagged; assay: SPR, Biacore 2000: antibody captured on an anti-human antibody CM-5 chip, rhCD25 his tagged as analyte, 1:1 Langmuir fit
[14] = target: T5, human CD25 expressed on cells (Karpas …); assay: flow cytometry on SR-786 cells, Geo Mean Intensity
[15] = target: T1, recombinant human CD25 his tagged; assay: SPR, Biacore 2000: antibody captured on an anti-human antibody CM-5 chip, rhCD25 his tagged as analyte, 1:1 Langmuir fit; remark: listed apart in the source
[16] = target: T5, human CD25 expressed on cells (Karpas …); assay: flow cytometry on Karpas 299 cells, MFI AF647; remark: listed apart in the source

B1: Antibody 5 (antibody, V domains shown)
VH: EVQLVESGGGLIQPGGSLRLSCAASGFTLDSYGVSWVRQAPGKGLEWVGVTSSGGSAYYADSVKGRFTISRDNSKNTLYLQMNSLRAEDTAVYYCARDRYVYTGGYLYHYGMDLWGQGTLVTVSS
VL: DIQMTQSPSSLSASVGDRVTITCRASQSISDYLAWYQQKPGKVPKLLIYAASTLPFGVPSRFSGSGSGTDFTLTISSLQPEDVATYYCQGTYDSSDWYWAFGGGTKVEI
notes: compared with a human IgG1 isotype control
- Kd [1]: 0.8 nM

B3: Antibody 10 (antibody, V domains shown)
VH: QVQLQESGPGLVKPSETLSLTCTVSGFSLTSYGIQWIRQPPGKGLEWIGVIWAGGSTNYNSALMSRVTISKDNSKNQFSLKLSSVTAADTAVYYCARAYGYDGSWLAYWGQGTLVTVSS
VL: EIVLTQSPATLSLSPGERATLSCRASSSVSYMHWYQQKPGQAPRPLIFATSNLASGIPARFSGSGSGTDFTLTISSLEPEDFAVYYCQQWSSNPPTFGGGTKLEIK
notes: also called Ab10
- EC50 (read off the curve) [5]: ~0.3 µg/mL

B4: Antibody 6 (antibody, V domains shown)
VH: EVQLLESGGGLVQPGGSLRLSCAASGFTFSSYGMSWVRQAPGKGLELVSTINGYGDTTYYPDSVKGRFTISRDNSKNTLYLQMNSLRAEDTAVYYCARDRDYGNSYYYALDYWGQGTLVTVSS
VL: EIVLTQSPGTLSLSPGERATLSCRASSSVSFMHWLQQKPGQAPRPLIYATSNLASGIPDRFSGSGSGTDYTLTISRLEPEDFAVYYCQQWSSNPPAFGQGTKLEIK
notes: as for B1
- binding result [6]: binds

B7: Antibody 11 (antibody, V domains shown)
VH: QVQLQESGPGLVKPSETLSLTCTVSGFSLTSYGIQWIRQPPGKGLEWIGVIWAGGSTNYNSALMSRVTISKDNSKNQFSLKLSSVTAADTAVYYCARAYGYDGSWLAYWGQGTLVTVSS
VL: QIVLTQSPATLSLSPGERATLSCRASSSVSYMHWYQQKPGQAPRPLIFATSNLASGIPARFSGSGSGTDYTLTISSLEPEDFAVYYCQQWSSNPPTFGGGTKLEIK
notes: also called Ab11
- EC50 (read off the curve) [9]: ~0.3 µg/mL

B11: MA251, mouse anti-human CD25 antibody (antibody, V domains shown)
VH: QVQLKESGPGLVAPSQSLSITCTVSGFSLTSYGIQWVRQPPGKGLEWLGVIWAGGSTNYNSALMSRLSISKDNSKSQVFLKMNSLQTDDTAMYYCARAYGYDGSWLAYWGQGTLVTVSS
VL: QIVLSQSPAILSASPGEKVTMTCRASSSVSYMHWYQQKPGSSPKPWIFATSNLASGVPARFSGSGSGTSYSLTINRVEAEDADTYYCQQWSSNPPTFGGGTKLEIK
notes: Mouse isotype (compared with a mouse IgG1 isotype control)
- EC50 (read off the curve) [16]: ~0.1 µg/mL

More lines, now with the values ahead:

- EC50 (read off the curve) [2]: ~0.2 µg/mL
- Kd [3]: 3.6 nM
- Kd [4]: 4.6 nM
B2: PC61(mIgG2a), recombinant anti-mouse CD25 antibody from clone PC-61.5.3 with murine IgG2a and kappa constant regions (antibody, V domains shown)
VH: EVQLQQSGAELVRPGTSVKLSCKVSGDTITAYYIHFVKQRPGQGLEWIGRIDPEDDSTEYAEKFKNKATITANTSSNTAHLKYSRLTSEDTATYFCTTDNMGATEFVYWGQGTLVTVSS
VL: QVVLTQPKSVSASLESTVKLSCKLNSGNIGSYYMHWYQQREGRSPTNLIYRDDKRPDGAPDRFSGSIDISSNSAFLTINNVQTEDEAMYFCHSYDGRMYIFGGGTKLTV
notes: also called PC61m2a; aPC61 mIgG2a

- binding result [7]: binds
B5: Antibody 8 (antibody, V domains shown)
VH: EVQLLESGGGLVQPGGSLRLSCAASGFTFSSYGMSWVRQAPGKGLELVSTINGYGDTTYYPDSVKGRFTISRDNAKNTLYLQMNSLRAEDTAVYFCARDRDYGNSYYYALDYWGQGTLVTVSS
VL: EIVLTQSPGTLSLSPGERATLSCRASSSVSFMHWLQQKPGQAPRPLIYATSNLASGIPDRFSGSGSGTDYTLTISRLEPEDFAVYYCQQWSSNPPAFGQGTKLEIK
notes: as for B1

- binding result [8]: binds
B6: Antibody 9 (antibody, V domains shown)
VH: EVQLLESGGGLVQPGGSLRLSCAASGFTFSSYGMSWVRQAPGKGLELVSTINGYGDTTYYPDSVKGRFTISRDNAKNTLYLQMNSLRAEDTAVYFCARDRDYGNSYYYALDYWGQGTLVTVSS
VL: QIVLTQSPGTLSLSPGERATLSCRASSSVSFMHWLQQKPGQSPRPLIYATSNLASGIPDRFSGSGSGTDYTLTISRLEPEDFAVYYCQQWSSNPPAFGQGTKLEIK
notes: as for B1

- binding result [10]: binds
B8: Antibody 7 (antibody, V domains shown)
VH: EVQLLESGGGLVQPGGSLRLSCAASGFTFSSYGMSWVRQAPGKGLELVSTINGYGDTTYYPDSVKGRFTISRDNSKNTLYLQMNSLRAEDTAVYYCARDRDYGNSYYYALDYWGQGTLVTVSS
VL: QIVLTQSPGTLSLSPGERATLSCRASSSVSFMHWLQQKPGQSPRPLIYATSNLASGIPDRFSGSGSGTDYTLTISRLEPEDFAVYYCQQWSSNPPAFGQGTKLEIK
notes: as for B1

- EC50 (read off the curve) [11]: ~1 µg/mL
- EC50 (read off the curve) [12]: ~0.8 µg/mL
- Kd [13]: 6.7 nM
- EC50 (read off the curve) [14]: ~0.9 µg/mL
B9: chimeric 7G7B6 (antibody, V domains shown)
VH: EVQLVESGGDLVQPRGSLKLSCAASGFTFSSYGMSWVRQTPDKRLELVATINGYGDTTYYPDSVKGRFTISRDNAKNTLYLQMSSLKSEDTAMYFCARDRDYGNSYYYALDYWGQGTSVTVSS
VL: QIVLSQSPAILSASPGERVTMTCRASSSVSFMHWLQQKPGSSPKPWIYATSNLASGVSARFSGSGSGTSYSLTITRVEAEDAATYYCQQWSSNPPAFGGGTKLEIK
notes: also called 7G7B6 chimeric antibody; 7g7B6ch

- Kd [15]: 6.6 nM
B10: MA251ch (antibody, V domains shown)
VH: QVQLKESGPGLVAPSQSLSITCTVSGFSLTSYGIQWVRQPPGKGLEWLGVIWAGGSTNYNSALMSRLSISKDNSKSQVFLKMNSLQTDDTAMYYCARAYGYDGSWLAYWGQGTLVTVSS
VL: QIVLSQSPAILSASPGEKVTMTCRASSSVSYMHWYQQKPGSSPKPWIFATSNLASGVPARFSGSGSGTSYSLTINRVEAEDADTYYCQQWSSNPPTFGGGTKLEIK
